Measurements reported in US20230203134A1 (published 2023).
Like-named read-outs stand apart in the source and are kept apart here.

Experiments:
[1] = molecular target: T1, SARS-CoV-2 S trimer (soluble spike ectodomain trimer) (SARS-CoV-2, UniProt P0DTC2 14-1213); experiment: SPR
[2] = molecular target: T1, SARS-CoV-2 S trimer (soluble spike …); experiment: ELISA
[3] = molecular target: T2, SARS-CoV-2 receptor binding domain (RBD) (SARS-CoV-2, UniProt P0DTC2 319-591); experiment: ELISA
[4] = molecular target: T2, SARS-CoV-2 receptor binding domain (RBD); experiment: SPR
[5] = molecular target: T1, SARS-CoV-2 S trimer (soluble spike …); experiment: SPR; remark: listed apart in the source
[6] = molecular target: T1, SARS-CoV-2 S trimer (soluble spike …); experiment: SPR; remark: listed apart in the source

B1: monoclonal antibody 2-15 (antibody, V domains shown)
VH: QVQLVQSGAEVKKPGASVRVSCKASGYTFTGYYMHWVRQAPGQGLEWMGWINPISDGTNYAQKFQGWVTMTRDTSISTVYMELSRLRSDDTAVYYCARGGSRCSGGNCYGWAYDAFDIWGQGTMITVSS
VL: QSALTQPASVSGSPGQSITISCTGTSSDVGGYNFVSWYQQHPGKAPKLMIYDVSKRPSGVSNRFSGSKSGNTASLTISGLQAEDEADCYCSSYTSSSTFVFGTGTKVTVL
For B1, the Kd [1] was 5.7 nM, the EC50 [2] was 0.006 µg/mL and the EC50 [3] was 0.008 µg/mL.

B2: monoclonal antibody 2-4 (antibody, V domains shown)
VH: QVQLVQSGAEVKKPGASVKVSCKASGYTFTGYYMHWVRQAPGQGLEWMGWINPNSGGTNYTQMFQGRVTMTRDTSISTAYMEVSRLRSDDTAVYYCARDRSWAVVYYYMDVWGKGTTVTVSS
VL: QSALTQPPSASGSPGQSVTISCTGTSSDVGGYNYVSWYQQHPGKAPKLMIYEVSKRPSGVPDRFSGSKSGNTASLTVSGLQAEDEADYYCSSYAGSNNLVFGGGTKLTVL
Work on B2 yielded a Kd [4] of 34.2 nM, a Kd [1] of 8.7 nM and a Kd [5] of 41.2 nM. It also gave an EC50 [2] of 0.018 µg/mL and an EC50 [3] of 0.021 µg/mL.

B3: monoclonal antibody 2-51 (antibody, V domains shown)
VH: QVQLVQSGAEVKKPGASVKVSCKVSGYTLIELSMHWVRQAPGKGLEWMGGFDPEDVETIYAQQFQGRVTMTEDTSTDTAYMELSSLRSEDTAVYYCATGWAYKSTWYFGYWGQGTLVTVSS
VL: QSALTQPPSASGSPGQSVTISCTGTSSDVGGYNYVSWYQQHPGKAPKLMIYEVSKRPSGVPDRFSGSKSGNTASLTVSGLQAEDEADYYCSSYAGSRMGFGGGTKLTVL
In the case of B3, the Kd [6] is reported as 77.1 nM and the EC50 [2] is reported as 0.017 µg/mL.

B4: monoclonal antibody 2-38 (antibody, V domains shown)
VH: EVQLVESGGGLVKPGGSLRLSCAASGFTFSSYSMNWVRQAPGKGLEWVSSISSSSSYIYYADSVKGRFTISRDNAKNSLYLQMNSLRAEDTAVYYCTRAGWELRLDAFDIWGQGTMVTVSS
VL: SSELTQDPAVSVALGQTVRITCQGDSLRSSYASWYQQKPGQAPILVIYDKNNRPSGIPDRFSGSSSGNTASLTITGAQAEDEADYYCNSRDSSGILFGGGTKLTVL
Binder B4 has a Kd [1] of 51.4 nM, an EC50 [2] of 0.305 µg/mL and an EC50 [3] of 0.289 µg/mL.
